Results from patent publication US20250295799A1 (Zymeworks, published 2025).

B1: H18L6_LC_G34H mAb, v40205 (antibody, human IgG1, kappa, V domains shown)
VH: QVQLVQSGAEVKKPGSSVKVSCKASGYTFTDYEMHWVKQAPGHGLEWIGAIDPETGDTAYNQKFKGKATLTADTSTSTAYMELSSLRSEDTAVYYCTRYFSFAYWGQGTLVTVSS
VL: EIVLTQSPATLSLSPGERATISCRSSQSLRHSNHNTYLQWYQQKPGQAPRLLIYKVSNRFSGVPARFSGSGSGTDFTLTISSLEPEDFAVYFCYQSKHVPYTFGGGTKVEIKR
notes: M3-H18L6 chains with the stated light chain point mutation, IgG1/kappa
B2: H18L6_LC_N33K mAb, v40217 (antibody, human IgG1, kappa, V domains shown)
VH: QVQLVQSGAEVKKPGSSVKVSCKASGYTFTDYEMHWVKQAPGHGLEWIGAIDPETGDTAYNQKFKGKATLTADTSTSTAYMELSSLRSEDTAVYYCTRYFSFAYWGQGTLVTVSS
VL: EIVLTQSPATLSLSPGERATISCRSSQSLRHSKGNTYLQWYQQKPGQAPRLLIYKVSNRFSGVPARFSGSGSGTDFTLTISSLEPEDFAVYFCYQSKHVPYTFGGGTKVEIKR
notes: as for B1
B3: H18L6_LC_G34V mAb, v40211 (antibody, human IgG1, kappa, V domains shown)
VH: QVQLVQSGAEVKKPGSSVKVSCKASGYTFTDYEMHWVKQAPGHGLEWIGAIDPETGDTAYNQKFKGKATLTADTSTSTAYMELSSLRSEDTAVYYCTRYFSFAYWGQGTLVTVSS
VL: EIVLTQSPATLSLSPGERATISCRSSQSLRHSNVNTYLQWYQQKPGQAPRLLIYKVSNRFSGVPARFSGSGSGTDFTLTISSLEPEDFAVYFCYQSKHVPYTFGGGTKVEIKR
notes: as for B1
B4: H18L6_LC_N33D mAb, v40222 (antibody, human IgG1, kappa, V domains shown)
VH: QVQLVQSGAEVKKPGSSVKVSCKASGYTFTDYEMHWVKQAPGHGLEWIGAIDPETGDTAYNQKFKGKATLTADTSTSTAYMELSSLRSEDTAVYYCTRYFSFAYWGQGTLVTVSS
VL: EIVLTQSPATLSLSPGERATISCRSSQSLRHSDGNTYLQWYQQKPGQAPRLLIYKVSNRFSGVPARFSGSGSGTDFTLTISSLEPEDFAVYFCYQSKHVPYTFGGGTKVEIKR
notes: as for B1
B5: H18L6_LC_N33R mAb, v40216 (antibody, human IgG1, kappa, V domains shown)
VH: QVQLVQSGAEVKKPGSSVKVSCKASGYTFTDYEMHWVKQAPGHGLEWIGAIDPETGDTAYNQKFKGKATLTADTSTSTAYMELSSLRSEDTAVYYCTRYFSFAYWGQGTLVTVSS
VL: EIVLTQSPATLSLSPGERATISCRSSQSLRHSRGNTYLQWYQQKPGQAPRLLIYKVSNRFSGVPARFSGSGSGTDFTLTISSLEPEDFAVYFCYQSKHVPYTFGGGTKVEIKR
notes: as for B1
B6: H18L6_LC_N33E mAb, v40213 (antibody, human IgG1, kappa, V domains shown)
VH: QVQLVQSGAEVKKPGSSVKVSCKASGYTFTDYEMHWVKQAPGHGLEWIGAIDPETGDTAYNQKFKGKATLTADTSTSTAYMELSSLRSEDTAVYYCTRYFSFAYWGQGTLVTVSS
VL: EIVLTQSPATLSLSPGERATISCRSSQSLRHSEGNTYLQWYQQKPGQAPRLLIYKVSNRFSGVPARFSGSGSGTDFTLTISSLEPEDFAVYFCYQSKHVPYTFGGGTKVEIKR
notes: as for B1
B7: H18L6_LC_N33A mAb, v40219 (antibody, human IgG1, kappa, V domains shown)
VH: QVQLVQSGAEVKKPGSSVKVSCKASGYTFTDYEMHWVKQAPGHGLEWIGAIDPETGDTAYNQKFKGKATLTADTSTSTAYMELSSLRSEDTAVYYCTRYFSFAYWGQGTLVTVSS
VL: EIVLTQSPATLSLSPGERATISCRSSQSLRHSAGNTYLQWYQQKPGQAPRLLIYKVSNRFSGVPARFSGSGSGTDFTLTISSLEPEDFAVYFCYQSKHVPYTFGGGTKVEIKR
notes: as for B1
B8: H18L6_LC_N33V mAb, v40215 (antibody, human IgG1, kappa, V domains shown)
VH: QVQLVQSGAEVKKPGSSVKVSCKASGYTFTDYEMHWVKQAPGHGLEWIGAIDPETGDTAYNQKFKGKATLTADTSTSTAYMELSSLRSEDTAVYYCTRYFSFAYWGQGTLVTVSS
VL: EIVLTQSPATLSLSPGERATISCRSSQSLRHSVGNTYLQWYQQKPGQAPRLLIYKVSNRFSGVPARFSGSGSGTDFTLTISSLEPEDFAVYFCYQSKHVPYTFGGGTKVEIKR
notes: as for B1
B9: H18L6_LC_G34S mAb, v40210 (antibody, human IgG1, kappa, V domains shown)
VH: QVQLVQSGAEVKKPGSSVKVSCKASGYTFTDYEMHWVKQAPGHGLEWIGAIDPETGDTAYNQKFKGKATLTADTSTSTAYMELSSLRSEDTAVYYCTRYFSFAYWGQGTLVTVSS
VL: EIVLTQSPATLSLSPGERATISCRSSQSLRHSNSNTYLQWYQQKPGQAPRLLIYKVSNRFSGVPARFSGSGSGTDFTLTISSLEPEDFAVYFCYQSKHVPYTFGGGTKVEIKR
notes: as for B1
B10: H18L6_LC_N33S mAb, v40221 (antibody, human IgG1, kappa, V domains shown)
VH: QVQLVQSGAEVKKPGSSVKVSCKASGYTFTDYEMHWVKQAPGHGLEWIGAIDPETGDTAYNQKFKGKATLTADTSTSTAYMELSSLRSEDTAVYYCTRYFSFAYWGQGTLVTVSS
VL: EIVLTQSPATLSLSPGERATISCRSSQSLRHSSGNTYLQWYQQKPGQAPRLLIYKVSNRFSGVPARFSGSGSGTDFTLTISSLEPEDFAVYFCYQSKHVPYTFGGGTKVEIKR
notes: as for B1
B11: H18L6_LC_N33Q mAb, v40220 (antibody, human IgG1, kappa, V domains shown)
VH: QVQLVQSGAEVKKPGSSVKVSCKASGYTFTDYEMHWVKQAPGHGLEWIGAIDPETGDTAYNQKFKGKATLTADTSTSTAYMELSSLRSEDTAVYYCTRYFSFAYWGQGTLVTVSS
VL: EIVLTQSPATLSLSPGERATISCRSSQSLRHSQGNTYLQWYQQKPGQAPRLLIYKVSNRFSGVPARFSGSGSGTDFTLTISSLEPEDFAVYFCYQSKHVPYTFGGGTKVEIKR
notes: as for B1
B12: H18L6_LC_N33T mAb, v40214 (antibody, human IgG1, kappa, V domains shown)
VH: QVQLVQSGAEVKKPGSSVKVSCKASGYTFTDYEMHWVKQAPGHGLEWIGAIDPETGDTAYNQKFKGKATLTADTSTSTAYMELSSLRSEDTAVYYCTRYFSFAYWGQGTLVTVSS
VL: EIVLTQSPATLSLSPGERATISCRSSQSLRHSTGNTYLQWYQQKPGQAPRLLIYKVSNRFSGVPARFSGSGSGTDFTLTISSLEPEDFAVYFCYQSKHVPYTFGGGTKVEIKR
notes: as for B1
B13: H18L6_LC_N33H mAb, v40218 (antibody, human IgG1, kappa, V domains shown)
VH: QVQLVQSGAEVKKPGSSVKVSCKASGYTFTDYEMHWVKQAPGHGLEWIGAIDPETGDTAYNQKFKGKATLTADTSTSTAYMELSSLRSEDTAVYYCTRYFSFAYWGQGTLVTVSS
VL: EIVLTQSPATLSLSPGERATISCRSSQSLRHSHGNTYLQWYQQKPGQAPRLLIYKVSNRFSGVPARFSGSGSGTDFTLTISSLEPEDFAVYFCYQSKHVPYTFGGGTKVEIKR
notes: as for B1
B14: H18L6_LC_G34T mAb, v40209 (antibody, human IgG1, kappa, V domains shown)
VH: QVQLVQSGAEVKKPGSSVKVSCKASGYTFTDYEMHWVKQAPGHGLEWIGAIDPETGDTAYNQKFKGKATLTADTSTSTAYMELSSLRSEDTAVYYCTRYFSFAYWGQGTLVTVSS
VL: EIVLTQSPATLSLSPGERATISCRSSQSLRHSNTNTYLQWYQQKPGQAPRLLIYKVSNRFSGVPARFSGSGSGTDFTLTISSLEPEDFAVYFCYQSKHVPYTFGGGTKVEIKR
notes: as for B1
B15: codrituzumab (v37575) (antibody, human IgG1, kappa, V domains shown)
VH: QVQLVQSGAEVKKPGASVKVSCKASGYTFTDYEMHWVRQAPGQGLEWMGALDPKTGDTAYSQKFKGRVTLTADKSTSTAYMELSSLTSEDTAVYYCTRFYSYTYWGQGTLVTVSS
VL: DVVMTQSPLSLPVTPGEPASISCRSSQSLVHSNRNTYLHWYLQKPGQSPQLLIYKVSNRFSGVPDRFSGSGSGTDFTLKISRVEAEDVGVYYCSQNTHVPPTFGQGTKLEIKR
notes: also called GC33; RG-7686

How the values were obtained:
human glypican-3 (GPC3) [1] = target: T1, human glypican-3 (GPC3) (human, UniProt P51654 25-554); test: flow cytometry on JHH-5 cells (GPC3-mid);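 also: antibody binding to cells at 4 °C for 24 h, detected with anti-human AF647 as geometric mean fluorescence of live cells versus antibody concentration, fitted by specific binding with Hill slope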
T1 construct: Endogenous on JHH-7, JHH-5, HepG2 and NCI-H446 tumour cells, or transiently expressed on CHO-S cells from a pTT5 plasmid; also called hGPC3; huGPC3
Procedure: (§1) Briefly, cells were seeded at 50,000 cells/well in V-bottom 96-well plates and treated with antibody for 24 hours at 4° C. to prevent internalization. […] Following incubation and washing, fluorescence was detected by flow cytometry on a BD LSRFortessa™ Cell Analyzer (BD Biosciences, Franklin Lake, NJ) with 1,000 minimum events collected per well. AF647/APC-A GeoMean (fluorescence signal geometric mean, proportional to anti-Human AF647 binding) in live cell population was plotted against antibody concentration using GraphPad Prism Version 9 (GraphPad Software, San Diego, CA). The Bmax, Curve Hill Slope (h) and Kd values were derived from the “Specific binding with Hill slope” nonlinear regression curve fit in GraphPad Prism Version 9.

human glypican-3 (GPC3) [2] = target: T1, human glypican-3 (GPC3); test: cell-based or functional assay
human glypican-3 (GPC3) [3] = target: T1, human glypican-3 (GPC3); test: flow cytometry on JHH-7 cells (GPC3-high);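 also: antibody binding at 4 °C for 24 h, detected with anti-human AF647 secondary, geometric mean fluorescence of live cells versus antibody concentration, fitted as specific binding with Hill slope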
Procedure: as §1

[4] = target: T2, cynomolgus monkey glypican-3 (GPC3) (cynomolgus monkey, UniProt A5A6P7 25-554 (Pan troglodytes entry)); test: flow cytometry on CHO-S cells transfected with cynomolgus GPC3;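 also: antibodies incubated 24 h at 4 °C with transiently transfected cells, binding read as AF647 geometric mean fluorescence of live cells, GFP-transfected cells as negative control, Hill-slope specific-binding fit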
T2 construct: Transiently expressed on CHO-S cells; also called cynoGPC3; CynoGPC3-CHO
Procedure: (§2) Briefly, CHO—S cells were transiently transfected for −24 hours with a pTT5-based expression plasmid encoding human GPC3 or cynomolgus monkey GPC3, 0.5 μg DNA per 1 million cells, using the Neon™ Transfection System (Thermo Fisher Scientific Corp., Waltham, MA), to transiently express human or cynomolgus monkey GPC3. Cells transfected with GFP were used as negative transfection controls. Following transfection, cells were seeded at 50,000 cells/well in V-bottom 96-well plates and treated with antibody for 24 hours at 4° C. to prevent internalization. […] Following incubation and washing, fluorescence was detected by flow cytometry on a BD LSRFortessa™ Cell Analyzer (BD Biosciences, Franklin Lake, NJ) with 1,000 minimum events collected per well. AF647/APC-A GeoMean (fluorescence signal geometric mean, proportional to anti-Human AF647 binding) in live cell population was plotted against antibody concentration using GraphPad Prism Version 9 (GraphPad Software, San Diego, CA). The Bmax and Kd values were derived from the “Specific binding with Hill slope” nonlinear regression curve fit in GraphPad Prism Version 9.

human glypican-3 (GPC3) [5] = target: T1, human glypican-3 (GPC3); test: flow cytometry on CHO-S cells transfected with human GPC3;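 also: antibody binding to transiently transfected CHO-S cells after 24 hours at 4 °C, read as geometric mean fluorescence of anti-human AF647 in live cells, fitted against antibody concentration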
Procedure: as §2
For JHH-5 Internalization (MFI) in this document: test concentration or dose not given here.
For JHH-7 Internalization (MFI) in this document: test concentration or dose not given here.

| Binder | Bmax (MFI) (human glypican-3 (GPC3) [1]) | Kd (human glypican-3 (GPC3) [1]) | JHH-5 Internalization (MFI) (human glypican-3 (GPC3) [2]) | JHH-7 Internalization (MFI) (human glypican-3 (GPC3) [2]) | Bmax (MFI) (human glypican-3 (GPC3) [3]) | Kd (human glypican-3 (GPC3) [3]) | Bmax (MFI) [4] | Kd [4] | Bmax (MFI) (human glypican-3 (GPC3) [5]) | Kd (human glypican-3 (GPC3) [5]) |
| --- | --- | --- | --- | --- | --- | --- | --- | --- | --- | --- |
| B1 | 4580 MFI | 0.16 nM | 9170 MFI | 7320 MFI | 12500 MFI | 0.43 nM | 2990 MFI | 0.14 nM | 2460 MFI | 0.1 nM |
| B2 | – | – | – | – | 9230 MFI | 0.56 nM | – | – | – | – |
| B3 | 2940 MFI | 0.24 nM | 3560 MFI | 3330 MFI | 7420 MFI | 0.4 nM | 2640 MFI | 0.17 nM | 2100 MFI | 0.11 nM |
| B4 | – | – | – | – | – | > 47 nM | – | – | – | – |
| B5 | – | – | – | – | 9650 MFI | 0.67 nM | – | – | – | – |
| B6 | 1940 MFI | 3.39 nM | 1200 MFI | 1220 MFI | – | – | 2320 MFI | 0.22 nM | 1860 MFI | 0.25 nM |
| B7 | – | – | – | – | 7870 MFI | 0.62 nM | – | – | – | – |
| B8 | – | – | – | – | 9540 MFI | 1.01 nM | – | – | – | – |
| B9 | 4140 MFI | 0.1 nM | 8950 MFI | 8900 MFI | 10600 MFI | 0.42 nM | 2970 MFI | 0.09 nM | 2360 MFI | 0.06 nM |
| B10 | – | – | – | – | 7220 MFI | 0.79 nM | – | – | – | – |
| B11 | – | – | – | – | 7220 MFI | 0.67 nM | – | – | – | – |
| B12 | – | – | – | – | 9990 MFI | 0.75 nM | – | – | – | – |
| B13 | – | – | – | – | 8070 MFI | 0.77 nM | – | – | – | – |
| B14 | 4130 MFI | 0.11 nM | 9280 MFI | 9040 MFI | 10900 MFI | 0.42 nM | 2840 MFI | 0.14 nM | 2320 MFI | 0.11 nM |
| B15 | 5590 MFI | 0.19 nM | 8770 MFI | 6560 MFI | 14800 MFI | 0.31 nM | 3280 MFI | 0.09 nM | 2660 MFI | 0.08 nM |
